Measured values reported in paper PMC4114559, “Pigment Dispersing Factor Regulates Ecdysone Biosynthesis via Bombyx Neuropeptide G Protein Coupled Receptor-B2 in the Prothoracic Glands of Bombyx mori” (PLoS ONE, 2014).

Key:
PGs of B. mori [1] = assay: Ecdysone biosynthesis in cultured PGs (LC-MS/MS); format: cell-based, Bombyx mori
Procedure: Two strains of the silkworm B. mori were used for this study. The p50T strain was used for NGS analysis and tissue distribution analysis, and the Kinshu x Showa strain was used for other experiments. The p50T strain was reared on mulberry leaves at room temperature. The Kinshu x Showa strain was reared on an artificial diet (SilkMate PS: Nihon Nosan Kogyo) at 25°C under a 16L:8D photoperiod. The first feeding day was designated as day 0.
(§1) Dissected PGs were rinsed with Grace's insect culture medium (Gibco) and pre-cultured individually in 100 µl medium in 96-well plates (BD Falcon) at 25°C for 30 min. To evaluate the effect of extracellular Ca^2+ on ecdysone biosynthesis, lepidopteran saline and lepidopteran saline using NaCl as a replacement for CaCl2 were used. For the pharmacological analysis, the PG was pre-treated with the inhibitor for 15 min during the pre-culture period. Following this treatment, the PG was cultured in the desired conditions for the desired period (Ecdysone assay: 3 hours; cAMP assay: 30 min; and Protein phosphorylation assay: 15 min). Actinomycin D, H-89 and cycloheximide (CHX) were purchased from Sigma; Rapamycin was purchased from Santa Cruz Biotechnology; and LY294002 was purchased from Merck. H-89 was dissolved in water. The other inhibitors were dissolved in DMSO. […]
Prior to ecdysteroids extraction, the 100 µl of cultured medium was diluted with equal volume of MilliQ water. […] Quantification of ecdysteroids using LC-MS/MS was performed as previously described with some modifications. […] The separated ecdysteroids were quantified with the QTRAP5500 MS/MS system (AB SCIEX) using MRM mode. For the quantitative analysis, standard curves were generated with concentrations of 0.98–1000 ng/ml.
The effect of PDF and DH31 on ecdysone biosynthesis was evaluated in the PGs of B. mori. The PGs of V7 larvae were cultured with PDF or DH31, and the amount of ecdysone synthesized was measured using LC-MS/MS [21]. […]
(§2) Figure 3 Prothoracicotropic activities of PDF in vitro. […] Statistically significant differences were evaluated by Student's t-test (***P<0.001, **P<0.01, *P<0.05).

PGs of B. mori [2] = assay: Intracellular cAMP level in cultured PGs; format: cell-based, Bombyx mori; conditions: Ca2+-free lepidopteran saline, n = 4–8
Procedure: as §1
HEK293 cells were transfected with an empty mammalian expression vector (pME18S) or the full-length BNGR-B2 ORF inserted into the pME18S vector (BNGR-B2/pME18S) using Lipofectamine LTX with PLUS reagent (Invitrogen) according to the manufacturer's instructions. […] The luminescence was measured with a Wallac ARVO SX 1420 Multilabel Counter (PerkinElmer).
as §2

B1: PTTH: prothoracicotropic hormone, humoral pathway-mediated tropic hormone (protein, UniProt P17219 116-224, looked up)
Prothoracicotropic hormone: GNIQVENQAIPDPPCTCKYKKEIEDLGENSVPRFIETRNCNKTQQPTCRPPYICKESLYSITILKRRETKSQESLEIPNELKYRWVAESHPVSVACLCTRDYQLRYNNN
modifications: Prothoracicotropic hormone
B1 was tested, and the “ecdysone biosynthesis without extracellular Ca2+” value (PGs of B. mori [1]; Ca2+-free lepidopteran saline (CaCl2 replaced by NaCl), n = 6) was “did not induce ecdysone biosynthesis”, the EC50 (PGs of B. mori [1]; dose-response, cultured PGs of V7 larvae, 3 hours, LC-MS/MS, PTTH n = 10–38, read-out: EC50 (ecdysone biosynthesis, prothoracicotropic activity)) was 0.108 nM and the “concentration of highest prothoracicotropic activity” value (PGs of B. mori [1]; dose-response, cultured PGs of V7 larvae, LC-MS/MS) was 10^−9 M. For the same molecule, the “effect of Ca2+ depletion on induced upregulation of intracellular cAMP levels” value (PGs of B. mori [2]) was “suppressed PTTH-induced upregulation of intracellular cAMP levels”.
